The nature of the series: self-splicing fitness, log relative to wild type (ln ratio); higher = more splicing; Tetrahymena group I intron in knt gene, E. coli kanamycin selection, DiMSum; sequences stand for … in CUCUCU…GGAGGGAAAAGUUAUCAGGCAUGCACCUGGUAGCUAGUCUUUAAACCAAUAGAUUGCAUCGGUUUAAAAGGCAAGACCGUCAAAUUGCGGGAAAGGGGUCAACAGCCGUUCAGUACCAAGUCUCAGGGGAAACUUUGAGAUGGCCUUGCAAAGGGUAUGGUAAUAAGCUGACGGACAUGGUCCUAACCACGCAGCCAAGUCCUAAGUCAACAGAUCUUCUGUUGAUAUGGAUGCAGUUCACAGACUAAAUGUCGGUCGGGGAAGAUGUAUUCUUCUCAUAAGAUAUAGUCGGACCUCUCCUUAAUGGGAGCUAGCGGAUGAAGUGAUGCAACACUGGAGCCGCUGGGAACUAAUUUGUAUGCGAAAGUAUAUUGAUUAGUUUUGGAGUACUCGUGGUCG
The method in brief:
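A randomised library covering all eight P1ex-region intron nucleotides was built with the intron in the knt kanamycin-resistance gene on pET-22b(+) and held in E. coli BL21(DE3). Cells were grown overnight at 37°C or 30°C on LB agar, with or without 25 μg/mL kanamycin, plus 100 μg/mL carbenicillin, 50 μM IPTG and 0.2% rhamnose, and pooled colonies were amplicon-sequenced on an Illumina HiSeq 2500. DiMSum fitness is the error-weighted combination of wild-type-normalised replicate fold changes, kanamycin versus none.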

± gives the uncertainty stated by the source.

On to CACAAGCAAUAUUACGCAGA, for which the “self-splicing fitness (ln)” value is -2.72 ± 0.2 (30 °C) and -1.43 ± 0.16 (37 °C).
The like results for UAAUAGCAAUAUUACGAAAA were, in that order, -2.83 ± 0.26 and -1.59 ± 0.15.
The like results for AGUUAGCAAUAUUACGAGGU were, in that order, -3.43 ± 0.16 and -1.55 ± 0.17.
On to UUCAAGCAAUAUUACGGUAA, for which the “self-splicing fitness (ln)” value (30 °C) is -0.679 ± 0.097 and the “self-splicing fitness (ln)” value (37 °C) was 0.0151 ± 0.1.
For GCAAAGCAAUAUUACGCAUU the same measures were -2.78 ± 0.12 and -1.7 ± 0.14.
The like results for ACAGAGCAAUAUUACGGCAA were, in that order, -0.636 ± 0.22 and -2.08 ± 0.33.
With AAGGAGCAAUAUUACGGUAU, the “self-splicing fitness (ln)” value is, setting by setting: (30 °C) -3.5 ± 0.26; (37 °C) -2.06 ± 0.31.
The like results for GAAAAGCAAUAUUACGGCAC were, in that order, -0.696 ± 0.058 and -0.217 ± 0.093.
Take ACUCAGCAAUAUUACGCAUU: the “self-splicing fitness (ln)” value was -0.878 ± 0.049 (30 °C) and -0.294 ± 0.06 (37 °C).
The like results for CGGUAGCAAUAUUACGCAGA were, in that order, -1.8 ± 0.29 and -1.91 ± 0.2.
For AUCGAGCAAUAUUACGUGGG the same measures were -4.14 ± 0.33 and -2.42 ± 0.24.
Turning to CCUCAGCAAUAUUACGGCAU, the “self-splicing fitness (ln)” value is -3.12 ± 0.13 (30 °C) and -2.42 ± 0.18 (37 °C).
For the sequence GUCAAGCAAUAUUACGGGAC, the “self-splicing fitness (ln)” value (30 °C) was -2.81 ± 0.5.
As to GGCGAGCAAUAUUACGAGUG, the “self-splicing fitness (ln)” value (30 °C) is -1.67 ± 0.19 and the “self-splicing fitness (ln)” value (37 °C) is -1.47 ± 0.3.
The like results for CAAUAGCAAUAUUACGCGAA were, in that order, -3.11 ± 0.21 and -1.67 ± 0.15.
As for CCGUAGCAAUAUUACGAGCA, the “self-splicing fitness (ln)” value (37 °C) was -1.37 ± 0.33.
CCUCAGCAAUAUUACGGAAG: the “self-splicing fitness (ln)” value by setting is: (30 °C) -1.05 ± 0.11; (37 °C) -0.549 ± 0.14.
For GCAUAGCAAUAUUACGAGUA the same measures were -1.63 ± 0.15 and -1.23 ± 0.12.
Take UAAGAGCAAUAUUACGUGCU: the “self-splicing fitness (ln)” value (30 °C) is -4.59 ± 0.31 and the “self-splicing fitness (ln)” value (37 °C) is -2.09 ± 0.27.
The like results for GAGGAGCAAUAUUACGAUGC were, in that order, -2.85 ± 0.26 and -1.21 ± 0.21.
As to GCUAAGCAAUAUUACGAAUC, the “self-splicing fitness (ln)” value runs as follows: (30 °C) 0.136 ± 0.29; (37 °C) -0.437 ± 0.35.
The like results for CAGCAGCAAUAUUACGCCAU were, in that order, -3.12 ± 0.24 and -1.78 ± 0.21.
For AGGUAGCAAUAUUACGUCGU the same measures were -1.761 ± 0.015 and -0.841 ± 0.034.
The like results for CCGUAGCAAUAUUACGCCGC were, in that order, -3.84 ± 0.26 and -2.68 ± 0.34.
As for GGAGAGCAAUAUUACGUUUC, for the setting “30 °C”, the “self-splicing fitness (ln)” value was -3.17 ± 0.34.
With UACUAGCAAUAUUACGGCGA, the “self-splicing fitness (ln)” value is, setting by setting: (30 °C) -0.849 ± 0.11; (37 °C) 0.621 ± 0.13.
For UUGUAGCAAUAUUACGCCCG the same measures were -0.143 ± 0.22 and -0.0661 ± 0.23.
On to GUUGAGCAAUAUUACGCGCC, for which the “self-splicing fitness (ln)” value (30 °C) is -2.97 ± 0.37.
Consider UAAGAGCAAUAUUACGGAUA, for which the “self-splicing fitness (ln)” value is, setting by setting: (30 °C) -2.84 ± 0.44; (37 °C) -1.54 ± 0.4.
The like results for CACGAGCAAUAUUACGCGAG were, in that order, -1.52 ± 0.17 and -2.5 ± 0.26.
For CAAUAGCAAUAUUACGGGUG the same measures were -0.693 ± 0.068 and 0.0252 ± 0.091.
For the sequence UCUCAGCAAUAUUACGGGGG, the “self-splicing fitness (ln)” value reads like this: (30 °C) -3.53 ± 0.27; (37 °C) -2.02 ± 0.2.
The like results for GUCCAGCAAUAUUACGUACC were, in that order, -1.08 ± 0.15 and -1.74 ± 0.24.
AUGGAGCAAUAUUACGCGCC: the “self-splicing fitness (ln)” value (37 °C) was -1.2 ± 0.34.
CAGUAGCAAUAUUACGUUGC: the “self-splicing fitness (ln)” value (30 °C) is -3.47 ± 0.34.

For the origin of these results see the supplement of paper PMC7877785.
